Consider one molecule from patent US12545745B2, “Method for treating a degenerative neurological disorders comprising administering ASM inhibitor” (KYUNGPOOK NATIONAL UNIVERSITY INDUSTRY-ACADEMIC COOPERATION …, priority 2013, dated 2026).

For assay [1], the system named is depression-induced animal model (WT/RSD). Briefly: Depression behaviour tests (Open field, Dark & Light, Tail suspension, Force swim) in RSD mice. The assay is classed as in vivo, mouse. The following applies: 50 mg/kg i.p. twice weekly, vs PBS, FIG. 59A-59D. The method, then: For depression-induced animal model, C57BL/6 mice (Charles River, UK) were used as those with depression by inducing Repeated Social Defeat (RSD) stress for 10 days. Repeated Social Defeat (RSD) stress was induced by placing two male, 6-8 week-old C57BL/6 mice with one male, 6-8 week-old CD-1 mouse (aggressive intruder mouse) in the same cage for 10 days, 2 hours daily. After 10 days, depression of C57BL/6 mice was confirmed through the depression behavior test. To confirm the therapeutic effect of ASM inhibitor (Smpd1 miR RNAi) in the depressed animal model, 6-week-old male C57BL/6 mice were injected with said ASM inhibitor via tail vein injection twice weekly in a dosage of 50 μg/mice for 4 weeks prior to the induction of depression. Four weeks later, behavioral analysis was performed after inducing Repeated Social Defeat (RSD) stress for 10 days, followed by obtaining plasma samples of the mice (FIG. 47A). To determine whether ASM inhibition by Smpd1 miR RNAi injection leads to the improvement of depression in a depression-induced animal model, an Open field test, a Dark & Light test, a Tail suspension test and Force swim test were performed, respectively. For depression-induced animal model, C57BL/6 mice (Charles River, UK) were used as those with depression by inducing Repeated Social Defeat (RSD) stress for 10 days. […]

The next assay concerns ASM protein. The assay can be described thus: ASM protein concentration in plasma of APP/PS1 mice (ELISA). It counts as in vivo, mouse. The following applies: 50 mg/kg i.p. twice weekly, between groups, FIG. 51C. On the technique in general: In an ELISA, binding on a coated surface is turned into a signal by an enzyme label.
The target in another assay is T1, ASM (Mus musculus, UniProt Q04519).
T1 construct: from tissue; host or cells: mouse serum/plasma and brain tissue (APP/PS1, RSD-stressed C57BL/6, FUS R521C mice)
T1 sequence (Q04519 45-627): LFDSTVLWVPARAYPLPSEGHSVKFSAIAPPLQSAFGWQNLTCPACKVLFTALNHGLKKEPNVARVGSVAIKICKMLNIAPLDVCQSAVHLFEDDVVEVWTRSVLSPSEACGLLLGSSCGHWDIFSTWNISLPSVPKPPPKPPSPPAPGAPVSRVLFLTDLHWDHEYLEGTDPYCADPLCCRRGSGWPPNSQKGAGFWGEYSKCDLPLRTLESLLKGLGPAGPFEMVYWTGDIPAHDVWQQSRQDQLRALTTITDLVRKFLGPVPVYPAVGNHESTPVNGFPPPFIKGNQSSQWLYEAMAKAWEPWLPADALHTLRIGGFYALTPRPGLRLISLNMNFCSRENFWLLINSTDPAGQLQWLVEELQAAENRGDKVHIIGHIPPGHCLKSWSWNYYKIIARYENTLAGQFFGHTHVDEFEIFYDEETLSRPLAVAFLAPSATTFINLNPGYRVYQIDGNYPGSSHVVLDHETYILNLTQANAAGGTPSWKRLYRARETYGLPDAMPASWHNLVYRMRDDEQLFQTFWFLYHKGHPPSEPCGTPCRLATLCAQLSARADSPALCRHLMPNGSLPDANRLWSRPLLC
Briefly: ASM activity in plasma of ALS animal model (FUS R521C mice). It counts as in vivo. The following applies: 7-week-old ALS mice, 50 mg/kg i.p. twice weekly, vs PBS; FIG. 56B.

B1: ASM-ab 23A12C3: self-made monoclonal ASM antibody, Koma biotech; heavy chain SEQ ID NO. 29, light chain SEQ ID NO. 30 (antibody)
heavy: MGWSWIFLFLLSGTAGVHSEVQLQQSGPVLVKPGASVKMSCKASGYTFTDYYMNWVKQSHGKSLEWIGVINPYNDGTSYNQKFKGKATLTVDKSSSTAYMELNSLTSEDSAVYYCAREKLYYYGRDYAMDYWGQGTSVTVSSAKTTPPSVYPLAPGSAAQTNSMVTLGCLVKGYFPEPVTVTWNSGSLSSGVHTFPAVLQSDLYTLSSSVTVPSSTWPSQTVTCNVAHPASSTKVDKKIVPRDCGCKPCICTVPEVSSVFIFPPKPKDVLTITLTPKVTCVVVDISKDDPEVQFSWFVDDVEVHTAQTKPREEQINSTFRSVSELPIMHQDWLNGKEFKCRVNSAAFPAPIEKTISKTKGRPKAPQVYTIPPPKEQMAKDKVSLTCMITNFFPEDITVEWQWNGQPAENYKNTQPIMDTDGSYFVYSKLNVQKSNWEAGNTFTCSVLHEGLHNHHTEKSLSHSPGK
light: MSSAQFLGLLLLCFQGTRCDIQMTQTTSSLSASLGDRVTISCRSSQDISNYLNWCQQKPDGTVKLLIYYTSRLHSGVPSRFSGSGSGTDYSLTISNLEQEDIATYFCQQDNTLPYTFGGGTKLEIKRADAAPTVSIFPPSSEQLTSGGASVVCFLNNFYPKDINVKWKIDGSERQNGVLNSWTDQDSKDSTYSMSSTLTLTKDEYERHNSYTCEATHKTSTSPIVKSFNRNEC
modifications: 23A12C3_Heavy chain; 23A12C3_Light chain
notes: self-made monoclonal ASM antibody, Koma biotech; 30
As to B1, the symptoms of depression result in assay [1] is recorded as “significantly improve”. Moreover, the “plasma ASM protein concentration” value in the assay on ASM protein is given as “no difference”. In addition, the “level of ASM activity in the plasma” value with ASM is recorded as “remarkably low”.
